From US6998239B1, “Method for identifying a modulator of the binding of CCX CKR polypeptide to a chemokine” (ChemoCentryx, Inc., priority 1999, dated 2006)
“Also recorded” adds a separate entry of the source.

T1: CCX CKR (Homo sapiens, UniProt Q9NPB9)
T1 construct: Full length CCX CKR expression constructs were made in pIRESpuro expression vector; expressed in transfected cells
T1 sequence (Q9NPB9 1-350): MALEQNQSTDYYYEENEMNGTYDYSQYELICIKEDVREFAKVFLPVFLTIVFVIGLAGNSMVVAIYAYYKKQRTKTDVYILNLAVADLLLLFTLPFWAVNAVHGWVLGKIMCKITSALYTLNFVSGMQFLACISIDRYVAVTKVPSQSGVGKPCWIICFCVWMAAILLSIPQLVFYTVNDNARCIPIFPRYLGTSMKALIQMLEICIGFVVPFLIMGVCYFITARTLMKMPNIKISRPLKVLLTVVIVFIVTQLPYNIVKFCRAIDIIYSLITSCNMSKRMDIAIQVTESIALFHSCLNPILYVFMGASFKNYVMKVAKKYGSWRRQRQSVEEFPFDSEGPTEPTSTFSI


Legend:
[1] = target: T1, CCX CKR; assay: Ligand binding fingerprint: displacement of 125I-ELC from CCX CKR stable transfectants by cold chemokines; conditions: cold competitor 200 nM; human and murine ELC, SLC, TECK; comparable with 125I-TECK
Excerpt: (§1) In one embodiment, binding is detected as described by Dairaghi et al., 1997, J. Biol. Chem. 272:28206-209 (incorporated by reference in its entirety for all purposes) substituting CCX CKR transfectants for the CCR3 transfectants). In one embodiment, binding is detected using the filter based technique described by Dairaghi et al., 1999, J. Biol. Chem. 274:2156 (incorporated by reference in its entirety for all purposes), e.g., as shown in FIG. 4. Briefly, this technology employs expanded, efficiency-maximized radioligand binding utilizing filtration protocols. In these assays, 1×10^5 CCXCKR-293 HEK cells are incubated with […] (MlP3beta) (final concentration of ˜0.05 nM) in the presence of unlabeled chemokine for 3 h at 4° C. in 25 mM HEPES, 140 mM NaCl, 1 mM CaCl2, 5 mM MgCl2, and 0.2% bovine serum albumin, adjusted to pH 7.1. Reactions were aspirated onto PEI-treated GF/B glass filters using a cell harvester (Packard). Filters are washed twice (25 mM HEPES, 500 mM NaCl, 1 mM CaCl25 mM MgCl2, adjusted to pH 7.1) and scintillant (e.g., MicroScint 20; 50 μl) is added to dried filters and counted (e.g., using a Packard Topcount scintillation counter). The competition dose-response curves is analyzed by standard methods to determine IC50 values (e.g., using GraphPad Prism software (San Diego, Calif.)). Additionally, a Scatchard transformation can be used to estimate the receptor sites per cell (e.g., using WaveMetrics Igor software (Lake Oswego, Oreg.)).
In order to rapidly and thoroughly define a given chemokine receptor's ligand binding fingerprint, we have established an approach to comprehensively profile chemokine receptors using a large array of purified chemokines and chemokine variants. We used this approach to confirm independently the interaction of ELC and other chemokines with CCX CKR. Employing radioligand binding of ^125I-labeled-ELC or ^125I-TECK to CCX CKR stable transfectants, chemokine specificity for the new receptor was determined.
(§2) Binding analysis was carried out using efficiency-maximized radioligand binding utilizing filtration protocols designated “Displace Max” (Dairaghi et al., 1999, J Biol. Chem. 274:21569). In these assays, DisplaceMax employed the simultaneous interrogation of CCX CKR transfectants by >80 distinct purified chemokines in the ability to displace radiolabeled ELC or TECK, using the protocol described (Dairaghi et al., 1999, J Biol. Chem. 274:21569).

[2] = target: T1, CCX CKR; assay: Radioligand binding competition with Scatchard transformation (binding constants); conditions: for Affinity class of CCX CKR ligands (summary of Examples 4-6): summary statement
Excerpt: as §1, §2
The binding interactions identified in the primary screen were examined quantitatively by extensive radioligand binding competition to CCX CKR stable transfectants and Scatchard transformation of the displacement data (FIG. 4B). […] In each case, the murine versions of these chemokines also bound, and with even greater affinity; the apparent Kd's are listed in FIG. 4B. […] In similar experiments, murine CTACK bound the receptor with a Kd of ˜9 nM (not shown). CTACK is also referred to as CCL27, ALP, ILC, and ESkine.

[3] = target: T1, CCX CKR; assay: Ligand induced internalization of CCX CKR in 293 F-CCR10 cells (FACS, anti-Flag); type: cell-based; conditions: 100 nM chemokine, 37° C., 15 or 45 minutes
Method: 293 cells transfected with the Flag-CCX CKR fusion plasmid (i.e., “293 F-CCR10 cells;” see Example 3) were incubated at 37° C. with varying concentrations of chemokines (ELC, SLC, TECK, murine CTACK and MCP4) for 15 or 45 minutes. Following incubation, the cells were washed and fixed with 3% paraformaldehyde for 15 minutes on ice. The cells were stained with anti-Flag M1 antibody, followed by a PE-conjugated anti-mouse secondary antibody. FACS analysis were then carried out to determine surface expression of the receptor.
Results: A reduction in antibody binding in the presence of ligand is an indication of ligand-induced internalization of the receptor.

[4] = target: T1, CCX CKR; assay: Preliminary chemotaxis analysis of CCX CKR transfectants; type: cell-based; conditions: preliminary chemotaxis analyses, not shown
[5] = target: T1, CCX CKR; assay: Adhesion of HEK293-CCX CKR cells to immobilized ELC-stalkokine and competition by soluble chemokines; type: cell-based; conditions: 5-10 ug/ml soluble recombinant chemokine as competitor
Excerpt: “Stalkokine” technology was used to :identify the chemokines bound by the CCX CKR. Briefly, immobilized native chemokines alone are incapable of capturing cells bearing cognate receptors (Imai et al., 1997, Cell 91:521). We have developed non-native chemokine structures, stalkokines, comprising chemokine moieties engineered as N-terminal attachments to extended modified mucins (Bazan et al., 1997, Nature 385:640). In one embodiment, stalkokines, harvested in the supernatants of HEK293 cells after transient transfection, are anchored to solid substrates via antibodies against carrier domains (e.g. poly-His epitopes) engineered to the carboxyl terminus, leaving the chemokine domain free to interact with candidate orphan receptors.
To determine ligand binding to CCX CKR, HEK293-CCX CKR cells were used to interrogate chemokine ‘stalkokines’ (SK), i.e., molecules in which discrete chemokine domains were engineered to be tethered to the end of an extended stalk structure. […] In all cases, nonadherent cells were removed by washing in PBS; remaining adherent cells were fixed with 1% glutaraldehyde, photoimaged and counted. […]

[6] = target: T1, CCX CKR; assay: Homologous competition binding of radiolabeled chemokine on HEK293-CCX CKR cells; conditions: data not shown
Excerpt: Furthermore ELC-SK mediated adhesion was abolished in the presence of soluble native ELC as a competitor (FIG. 3A, top row). […] Moreover, radiolabeled ELC was used in a traditional homologous competition assay in the presence of increasing concentrations of unlabeled ELC. […] Taken together, the stalkokine-based adhesion and radiolabeled ligand binding/homologous competition assays indicate that CCX CKR is a new chemokine receptor that bound a novel compliment of chemokines.

Molecule	Binding to CCX CKR by displacement of 125I-labeled ELC [1]	Affinity class of CCX CKR ligands (summary of Examples 4-6) [2]	Internalization of the receptor [3]	Migration of CCX CKR transfectants in response to chemokine [4]	Effect of soluble chemokine on ELC-SK mediated adhesion of HEK293-CCX CKR cells [5]	Affinity for CCX CKR in multipoint competition, in words ([2]; competition against 125I-ELC)	Homologous competition of radiolabeled TECK with cold TECK [6]
SLC: secondary lymphoid-tissue chemokine, recombinant (protein) SDGGAQDCCLKYSQRKIPAKVVRSYRKQEPSLGCSIPAILFLPRKRSQAELCADPKELWVQQLMQHLDKTPSPQKPAQGCRKDRGASKTGKKGKGSKGCKRTERSQTPKGP	bound well	high affinity	Internalization of the receptor was observed	moderate migration	ablation of adhesion; also recorded: significant reduction	–	–
mMIP-1gamma: murine chemokine MIP-1γ (CCF18) (protein) QITHATETKEVQSSLKAQQGLEIEMFHMGFQDSSDCCLSYNSRIQCSRFIGYFPTSGGCTRPGIIFISKRGFQVCANPSDRRVQRCIERLEQNSQPRTYKQ	moderately	lower affinity	–	–	–	–	–
murine CTACK: murine chemokine CTACK, also referred to as CCL27, ALP, ILC, and ESkine (protein) LPLPSSTSCCTQLYRQPLPSRLLRRIVHMELQEADGDCHLQAVVLHLARRSVCVHPQNRSLARWLERQGKRLQGTVPSLNLVLQKKMYSHPQQQN	–	high affinity	Internalization of the receptor was observed	–	–	–	–
vMIPII: virally-encoded chemokine from the human Kaposi's sarcoma herpesvirus HHV8 (protein) LGASWHRPDKCCLGYQKRPLPQVLLSSWYPTSQLCSKPGVIFLTKRGRQVCADKSKDWVKKLMQQLPVTAR	lower affinity	lower affinity	–	–	–	moderate to low affinity	–
TECK: thymus expressed chemokine, recombinant (protein) QGVFEDCCLAYHYPIGWAVLRRAWTYRIQEVSGSCNLPAAIFYLPKRHRKVCGNPKSREVQRAMKLLDARNKVFAKLHHNTQTFQAGPHAVKKLSSGNSKLSSSKFSNPISSSKRNVSLLISANSGL	bound well	high affinity	Internalization of the receptor was observed	–	ablation of adhesion; also recorded: significant reduction	–	Nearly identical results
